Source: patent US6514942B1, “Methods and compositions for stimulating T-lymphocytes” (The Board of Regents, The University of Texas System, priority 1995, dated 2003)
“Also recorded” adds a separate entry of the source. One block for each sequence: values may come before it.

How the values were obtained:
[1] = tested on: CTL-34; experiment: Recognition of HER-2 peptides by ovarian tumor associated CTL (lysis of peptide-sensitized targets); format: cell-based, human
Protocol: Target cells were labeled with ^51Cr (Na^51CrO4; Amersham, Arlington Heights, Ill.) for 90 min at 37° C. (Ioannides et al., 1991; Ioannides et al., 1991), or overnight in RPMI medium, containing 10% FCS, 100 μg/ml L-glutamine and 40 μg/ml gentamycin (RPMI-FCS), then washed and incubated with the effector cells in complete RPMI-FCS in an incubator with 5% CO2. Targets were incubated either with 25 μM of peptide overnight during labeling, or with 10 μM peptide for 2 h at 37° C. in RPMI-FCS, then washed three times before being incubated with effector cells. Separate controls for spontaneous and total lysis of targets were made for each peptide pulsed target (Ioannides et al., 1993; Fisk et al., 1994; Gammon et al., 1992). After 4-5 h of incubation 100 μl of supernatant were collected and counted. Percent lysis was calculated from the formula: 100×[(E−S)/(T−S)], were E=experimental release, S=release in the absence of CTL, T=release in 2 M HCl.

[2] = tested on: three HLA-A2+ CTL lines; experiment: Recognition of nonapeptides by CTLs associated with and lysing ovarian tumors; format: cell-based, human; conditions: for CTL lines recognizing the peptide: of three HLA-A2+ CTL lines; for designation based on the levels of lysis induced: three HLA-A2+ CTL lines
[3] = molecular target: T1, HLA-A2 of T2 cells (Homo sapiens, UniProt P04439, D140Y/D185E/D98H/E176V/E277Q/G131W/G231S/I119V/I121R/I166T/I218V/L300P/L318F/N151K/N90K/P208A/P217A/Q86G/Q94H/R138H/R169H/T345S); experiment: Reactivity of MA2.1 mAb with T2 cells after culture with peptide (immunofluorescence, FL1); format: cell-based; conditions: for FL1 of T2 cells stained with MA2.1 mAb: peptide 50 μg/ml, overnight culture in IMDM-FCS; for reactivity of MA2.1 mAb with HLA-A2: study repeated with peptides dissolved in DMSO
T1 construct: cell surface expression of HLA-A2 is lower (30-40%) than in normal LBL lines transfected with HLA-A2; endogenous in cells; host or cells: T2 (transport deletion mutant) human lymphoblastoid cells, obtained from Dr. Peter Creswell
Protocol: FIG. 5A. Effects of HER-2 peptides on reactivity of MA2.1 mAb with T2 cells. Fluorescence analysis and determination of FL1 were performed as described (Stauss et al., 1992). Peptides were added to T2 cells at 50 μg/ml (final concentration). After overnight culture, in IMDM-FCS, cells were washed and the levels of HLA-A2 expression were determined using HLA-A2 specific mAb.
mAbs to CD3 (OKT3-FITC), CD4 (OKT4-FITC) and CD8 (OKT8-FITC) were obtained from Ortho Diagnostic (Ortho, Raritan, N.J.), mAb W6/32 (anti-HLA, -A, -B, -C) from Dako (Dako-Dakopatts, Denmark); HLA-A2 reacting mAb BB7.2 and MA2.1 from ATCC. Immunofluorescence studies were performed as described in Example 1.
To determine whether these peptides and longer analogs affect HLA-A2 conformation as an indication of HLA-A2 binding, the effects of HER-2 peptides on the reactivity of conformationally dependent mAb MA2.1 and BB.7.2 were examined with HLA-A2 of T2 cells. The human cell line T2 has a defect affecting endogenous peptide loading of MHC class I molecules. As a consequence, cell surface expression of HLA-A2 is lower (30-40%) than in normal LBL lines transfected with HLA-A2 (e.g., C1R) but the reactivity of MA2.1 and BB.7.2 mAb is increased when certain HLA-A2 binding peptides are added to the culture medium (Anderson et al., 1993). Although most human MHC class I molecules cannot be induced at the low temperatures used for their murine counterparts because of fundamental structural differences between human and mouse class I (Anderson et al., 1993), the fact that they express few endogenous (mainly signal) peptides (Zweerink et al., 1993) increases the sensitivity of detection of peptide-HLA-A2 interaction.

[4] = tested on: C1R:A2 cells; experiment: Ag specificity of the 41.CD8+ CTL line on peptide-pulsed targets; format: cell-based, human; conditions: peptide-pulsed C1R:A2, E:T 10:1
Protocol: FIG. 2A. Ag specificity of the 41.CD8^+ CTL line. C1R:A2 cells were pre-pulsed with either HER-2 peptides or control MUC-1 peptides before being incubated with effectors. The effector to target ratio was 10:1. C1R:A1 and C1R:A3 targets were pre-pulsed with the same peptides in the same conditions as C1R:A2 cells. Results for C1R:A1 and C1R:A3 show the difference between specific lysis of targets preincubated with peptides and control C1R:A1 and C1R:A3 targets. Specific lysis of control C1R:A1 and C1R:A3 cells was less than 10% at the same E:T ratio. Shown in FIG. 2A are results after 4 hrs' incubation.
(§1) Tumor cells and fibroblasts were labeled with 200 μCi of ^51Cr (Na^51CrO4; Amersham, Arlington Heights, Ill.) for 90 min at 37° C. (Ioannides et al., 1991). Lymphoblastoid cells and HLA-A2 transfectants were labeled overnight in RPMI-FCS, then washed three times and incubated with effector cells in RPMI-FCS in an incubator with 5%. CO2 (Bednarek et al., 1991; Gammon et al., 1992). When peptide recognition was determined, targets were incubated with 25 μM of peptides overnight during ^51Cr labeling or with 10 μM peptide for 2 h at 37° C. in RPMI-FCS then washed three times before being incubated with effector cells. Separate controls for spontaneous and total lysis were made for each peptide-pulsed target (Ioannides et al., 1991; Bednarek et al., 1991; Gammon et al., 1992). After 4-5 h, 100 μl of supernatant was collected and counted. To determine maximum lysis in 20-h assays, plates were left undisturbed in the incubator and the supernatant was collected after overnight incubation. For cold target inhibition studies, C1R:A2 cells were preincubated with HER-2 or control peptides overnight, then washed and admixed with ^51Cr-labeled targets at 2:1 and 6:1 (cold:hot targets) ratios. Percentage lysis was calculated from the formula: 100×[(E−S)/(T−S)], where E is experimental release, S is release in the absence of CTL, and T is release in 2 M HCl.
These cultures were propagated and expanded by periodic cycles of restimulation with peptide-pulsed fresh autologous PBMC as antigen-presenting cells. After the fourth stimulation cells were gradually adapted to growth in RPMI-FCS by replacing 25% of the culture medium every 3 days with RPMI-FCS over a period of 2 weeks. CD3^+CD8^+CD4^− cells were isolated from bulk CTL cultures by positive selection on anti-CD8 mAb-coated culture flasks (AIS Micro CELLector, Applied Immune Sciences, Menlo Park, Calif.) as described (Letessier et al., 1991). Isolated CD8^+ cells were restimulated with HER-2 peptide-pulsed PBMC, either autologous or in some instances allogeneic that matched only HLA-A2 with the responding cells. […]

[5] = tested on: OVA-16 (HLA-A2+, HER-2high) ovarian tumor; experiment: Cold target inhibition of OVA-16 lysis by 41.CD8+ CTL with peptide-pulsed C1R:A2 cells; format: cell-based, human; conditions: cold:hot 2:1, E:T 10:1, 4- and 20-h assays
Protocol: (§2) FIG. 4A. Target specificity of the 41.CD8^+ CTL were tested for the ability to lyse 5^1Cr-labeled OVA-16 at an E:T ratio of 10:1. C1R:A2 cells (A2.1) were incubated with synthetic peptides (D125, C43, C85), washed, and used in cold target inhibition studies at a cold:hot ratio of 2:1. Cytotoxicity studies were performed for 5 hr. Results represent the mean of three determinations. The variability between samples was less than 10%. The differences between determination are statistically significant (P<0.03) as determined by Student's t test. Percentage inhibition is indicated in parentheses.
as §2, with “FIG. 4B.” for “FIG. 4A.”, “lyse ^51Cr-labeled” for “lyse 5^1Cr-labeled”, “for 20” for “for 5”
as §1
To confirm that the 41.CD8^+ CTL line recognizes epitopes on HER-2^high tumors contained on peptides used for stimulation, cold target inhibition studies were performed. […]

[6] = molecular target: T2, HLA-A2 on indicator T2 cells (Homo sapiens, UniProt P04439, D140Y/D185E/D98H/E176V/E277Q/G131W/G231S/I119V/I121R/I166T/I218V/L300P/L318F/N151K/N90K/P208A/P217A/Q86G/Q94H/R138H/R169H/T345S); experiment: Stabilization of HLA-A2 expression on indicator line T2; format: cell-based; conditions: indicator T2 cells
T2 construct: cell surface expression of HLA-A2 is lower (30-40%) than in normal LBL lines transfected with HLA-A2; endogenous in cells; host or cells: T2 (transport deletion mutant) human lymphoblastoid cells, obtained from Dr. Peter Creswell
Excerpt: Since HER-2 is a self-antigen, during thymic selection, a number of T-cells carrying receptors with high affinity for the HLA-peptide complex are silenced either by elimination ro tolerization. A pre-condition for induction of a high affinity TCR-(MHC+peptide) interactions, is a stable (MHC+peptide) complex. […] However, stabilization of HLA-Class I binding by exogenously added peptide is dependent on introduction of dominant anchors in positions P2 and P9 which are not recognized by TCR.
Peptide D113, […] (SEQ ID NO:17), is the natural nonapeptide […].

[7] = tested on: C1R:A2 cells; experiment: In vitro induction of peptide-reactive CTL from PBMC, 51Cr release on peptide-pulsed C1R:A2; format: cell-based, human; conditions: PBMC stimulated with the peptide

Sequence: CLTSTVQLV [Peptide E90, HER-2:788-796]
% of C85 (target lysis by CTL in the presence of peptide as % of positive control C85) [1]: 1.149 % of C85

Sequence: QLMPYGCLL [Peptide E71, HER-2:798-806]
% of C85 (target lysis by CTL in the presence of peptide as % of positive control C85) [1]: 0.600 % of C85
CTL lines recognizing the peptide [2]: 2/3
designation based on the levels of lysis induced [2]: high

Sequence: SLADPAHGV [Peptide D132, control analog of Muc-1 core peptide with introduced P2 anchor, reference compound]
recognition by 41.CD8+ CTL line [4]: at a much lesser extent

Sequence: RIAWARTEL [Peptide E37, reference compound]
FL1 of T2 cells stained with MA2.1 mAb [3]: failed to affect MA2.1 epitope expression

Sequence: GLTSAPDTRV [Peptide D125, control analog of Muc-1 core peptide (Muc-1:8-17) with introduced HLA-A2 anchors, reference compound]
inhibition of tumor lysis by peptide-pulsed cold targets [5]: inability of C1R:A2 cells alone or pulsed with D125 to mediate the same inhibition
recognition by 41.CD8+ CTL line [4]: at a much lesser extent

Sequence: PLQPEQLQV [Peptide E77, HER-2:391-399]
% of C85 (target lysis by CTL in the presence of peptide as % of positive control C85) [1]: 0.300 % of C85
CTL lines recognizing the peptide [2]: 2/3
designation based on the levels of lysis induced [2]: moderate

Sequence: GLYQGCQVV [Peptide D115, HER-2:48-56(48H→G) analog]
stabilization of HLA-A2 [6]: significantly higher improvement
FL1 of T2 cells stained with MA2.1 mAb [3]: increased FL1 even further; also recorded: higher increase in reactivity of MA2.1 mAb with HLA-A2 than D96/D97
reactivity of MA2.1 mAb with HLA-A2 [3]: unable to increase reactivity
Ag specificity of CTL response induced by the peptide [7]: less specific CTL than D96/D97

Sequence: RLLYQGCQVV [Peptide D114, HER-2:47-56(48H→L) analog]
stabilization of HLA-A2 [6]: little improvement on stabilization of HLA-A2
FL1 of T2 cells stained with MA2.1 mAb [3]: increased FL1 even further; also recorded: higher increase in reactivity of MA2.1 mAb with HLA-A2 than D96/D97
reactivity of MA2.1 mAb with HLA-A2 [3]: unable to increase reactivity
Ag specificity of CTL response induced by the peptide [7]: lacked Ag specificity

Sequence: LVSEFSRMARDPQ [Peptide B69, HER-2:972-984]
FL1 of T2 cells stained with MA2.1 mAb [3]: failed to significantly increase FL1

Sequence: QLQVFETLEEI [Peptide D122, HER-2:396-406]
FL1 of T2 cells stained with MA2.1 mAb [3]: increased the FL1 only slightly

Sequence: DLGMGAAKGL [Peptide D99, decapeptide HER-2:1089-1098]
FL1 of T2 cells stained with MA2.1 mAb [3]: slight increase in FL1

Sequence: VLVKSPNHV [Peptide E89, HER-2:851-859]
% of C85 (target lysis by CTL in the presence of peptide as % of positive control C85) [1]: 1.149 % of C85
CTL lines recognizing the peptide [2]: 2/3
designation based on the levels of lysis induced [2]: high

Sequence: LQVFETLEEITGYL [Peptide D120, HER-2:397-410]
FL1 of T2 cells stained with MA2.1 mAb [3]: increased the FL1 only slightly

Sequence: ELVSEFSKV [Peptide C83, C85 analog with strengthened P9 and P8]
FL1 of T2 cells stained with MA2.1 mAb [3]: did not increase further the FL1

Results, then the sequence that gave them:

FL1 of T2 cells stained with MA2.1 mAb [3]: failed to induce an increase in FL1
Sequence: SLALMLLWL [Peptide E40, reference compound]

FL1 of T2 cells stained with MA2.1 mAb [3]: very high increase in FL1
Sequence: NLGPWIQQV [Peptide E38, reference compound]

FL1 of T2 cells stained with MA2.1 mAb [3]: moderate increase in FL1
Sequence: EIWTHSTKV [Peptide E39, reference compound]

FL1 of T2 cells stained with MA2.1 mAb [3]: failed to induce an increase in FL1
Sequence: LLSLALMLL [Peptide E41, reference compound]
